{
  "source": "patent US20200121801A1",
  "about": "“DRUG DELIVERY CONJUGATES CONTAINING UNNATURAL AMINO ACIDS AND METHODS FOR USING” (priority 2012, published 2020)",
  "key": {"[1]": {"test_system": "experimental autoimmune encephalomyelitis", "assay": "Autoimmune encephalomyelitis (EAE) model", "format": "in vivo, rats", "experimental": "METHOD. Autoimmune Encephalomyelitis (EAE) Model. EAE is induced in rats by immunization against 25 μg of guinea pig myelin basic protein (MBP) formulated with CFA containing 1 mg of grounded Mycobacterium tuberculosis H37Ra. Pertussis toxin is given intraperitoneally (1 μg/rat) to enhance the organ-specific autoimmunity. Starting 8 days after induction, rats are divided into […]: (1) untreated control (n=8), (2) test compound (n=7), and (3) test compound plus competitor compound (n=7), such as EC0923 competition. All treatments start on day 8 after EAE induction. The animals in the EAE control group are left untreated. […] The clinical severity of EAE is monitored on a daily basis and graded on a scale of 0 to 5 per animal. The clinical signs of ascending paralysis of EAE rats are divided into a 0-5 scale: 0=No disease, 0.5=distal limp tail, 1=limp tail, 2=mild paraparesis; ataxia-weakened hind limbs, 3=moderate paraparesis; hind limbs paresis, 4=complete hind limb paralysis, 5=complete hind limb paralysis and incontinence (euthanasia). On day 16, the animals are euthanized and brain and spinal cords are fixed in formalin for histology."}, "[2]": {"target": "T1, folate receptors (FRs) on KB cells (Homo sapiens, UniProt P15328)", "T1 construct": "FR-positive KB cells are heavily seeded into 24-well cell culture plates; endogenous in cells; host or cells: KB cells", "T1 sequence (P15328 25-234)": "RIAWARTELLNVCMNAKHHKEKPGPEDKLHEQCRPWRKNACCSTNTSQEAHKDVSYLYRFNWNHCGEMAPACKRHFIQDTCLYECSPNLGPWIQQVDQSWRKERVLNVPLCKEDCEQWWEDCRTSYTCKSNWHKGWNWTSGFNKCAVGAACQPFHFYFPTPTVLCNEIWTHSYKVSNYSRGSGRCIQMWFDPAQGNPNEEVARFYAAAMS", "assay": "Relative affinity assay (3H-folic acid competition) on KB cells", "format": "binding", "details": "KB cells, 1 h at 37° C.", "experimental": "METHOD. Relative Affinity Assay. The affinity for folate receptors (FRs) relative to folate is determined according to a previously described method (Westerhof, G. R., J. H. Schornagel, et al. (1995) Mol. Pharm. 48: 459-471) with slight modification. Briefly, FR-positive KB cells are heavily seeded into 24-well cell culture plates and allowed to adhere to the plastic for 18 h. Spent incubation media is replaced in designated wells with folate-free RPMI (FFRPMI) supplemented with 100 nM ^3H-folic acid in the absence and presence of increasing concentrations of test article or folic acid. Cells are incubated for 60 min at 37° C. and then rinsed 3 times with PBS, pH 7.4. Five hundred microliters of 1% SDS in PBS, pH 7.4, is added per well. Cell lysates are then collected and added to individual vials containing 5 mL of scintillation cocktail, and then counted for radioactivity. Negative control tubes contain only the ^3H-folic acid in FFRPMI (no competitor). Positive control tubes contain a final concentration of 1 mM folic acid, and CPMs measured in these samples (representing non-specific binding of label) are subtracted from all samples."}, "[3]": {"assay": "Plasma clearance after s.c. administration", "format": "in vivo, Lewis rats", "experimental": "METHOD. Plasma clearance. In vivo studies include a minimum of 3 test animals, such as rats, per time point. Illustratively, female Lewis rats with jugular vein catheters (Harlan, regular rodent diet) are given a single subcutaneous injection of test compound, such as EC1669 at 500 nmol/kg. Whole blood samples (300 μL) are collected at the following time points: 1 min, 10 min, 30 min, 1 h, 2 h, 3 h, 4 h, 8 h, and 12 h after injection. The blood samples are placed into anti-coagulant tubes containing 1.7 mg/mL of K3-EDTA and 0.35 mg/mL of N-maleoyl-beta-alanine (0.35 mg/mL) in a 0.15% acetic acid solution. Plasma samples are obtained by centrifugation for 3 min at ˜2,000 g and stored at −80° C. The amounts of test compound in the plasma and any metabolites, such as EC1669 and its two active metabolites aminopterin (AMT) and AMT hydrazide (EC0470), respectively, are quantified by LC-MS/MS."}, "RAW264.7 macrophages": {"test_system": "RAW264.7 macrophages", "assay": "XTT cell viability assay on RAW264.7 macrophages", "format": "cell-based, murine", "experimental": "METHOD. Inhibition of Cellular DNA Synthesis. The compounds described herein are evaluated using an in vitro cytotoxicity assay that predicts the ability of the drug to inhibit the growth of folate receptor-positive cells, such as KB cells, RAW264.7 macrophages, and the like. It is to be understood that the choice of cell type can made on the basis of the susceptibility of those selected cells to the drug that forms the conjugate. The test compounds are comprised of folate linked to a respective chemotherapeutic drug, as prepared according to the processes described herein. The test cells are exposed to varying concentrations of folate-drug conjugate, and also in the absence or presence of at least a 100-fold excess of folic acid to assess activity as being specific to folate receptor mediation.\nEXAMPLE. […] The anti-proliferative activity of EC1669 is measured in a XTT cell viability assay (FIG. 2) on RAW264.7 cells after a 2-h exposure and a total of 72 h incubation.\nRAW264.7 macrophages are susceptible to the drug forming the EC1669 conjugate, aminopterin. The cell viability is assessed by adding XTT (2,3-bis(2-methoxy-4-nitro-5-sulfo-phenyl)-2H-tetrazolium-5-carboxanilide) following the manufacturer's instructions. […] The observed anti-proliferative effect was 100% competable in the presence of 100-fold excess folic acid (FA), indicating a FR-specific mode of action for EC1669."}},
  "data": [
    {"smiles": "N=c1[nH]c(N)nc2ncc(CNc3ccc(C(=O)N[C@@H](CCC(=O)NNC(=O)OCCSSC[C@@H](NC(=O)[C@H](CCC(=O)NC[C@H](O)[C@@H](O)[C@H](O)[C@H](O)CO)NC(=O)[C@@H](CCC(=O)O)NC(=O)[C@H](CCC(=O)NC[C@H](O)[C@@H](O)[C@H](O)[C@H](O)CO)NC(=O)[C@@H](CCC(=O)O)NC(=O)[C@H](CCC(=O)NC[C@H](O)[C@@H](O)[C@H](O)[C@H](O)CO)NC(=O)CC[C@H](NC(=O)c4ccc(NCc5cnc6nc(N)[nH]c(=O)c6n5)cc4)C(=O)O)C(=O)O)C(=O)O)cc3)nc12", "note": "[EC1669]", "values": [
      {"measurement": "therapeutic effect with folate receptor competitor EC0923", "setting": "[1]; excess EC0923", "value": "blocked"},
      {"measurement": "efficacy against EAE (clinical score)", "setting": "[1]; s.c. every other day from day 8", "value": "effectively suppresses the neurological symptoms"},
      {"measurement": "treatment-related weight loss", "setting": "[1]; when dosed alone", "value": "not observed"},
      {"measurement": "relative affinity (normalized against folic acid, set to 1)", "setting": "[2]", "value": 0.53},
      {"measurement": "half-life", "setting": "[3]; female, Lewis, rat, in vivo, sc, EC1669 500 nmol/kg s.c., blood, read-out: elimination half-life", "value": "~37", "unit": "min"},
      {"measurement": "Cmax", "setting": "[3]; female, Lewis, rat, in vivo, sc, EC1669 500 nmol/kg s.c., plasma, read-out: Cmax", "value": "~472", "unit": "nM"},
      {"measurement": "AUC", "setting": "[3]; female, Lewis, rat, in vivo, sc, EC1669 500 nmol/kg s.c., read-out: area-under-the-curve (AUC) (converted)", "value": 0.867, "unit": "µM·h"},
      {"measurement": "% Released: AMT", "setting": "[3]; plasma, 12 h collection period", "value": 9.5, "unit": "%"},
      {"measurement": "% Released: EC0470", "setting": "[3]; plasma, 12 h collection period", "value": 6.3, "unit": "%"},
      {"measurement": "% Released: Total (AMT plus EC0470)", "setting": "[3]; plasma, 12 h collection period, based on AUC", "value": "~15.8", "unit": "%"},
      {"measurement": "AMT/EC0470 Ratio", "setting": "[3]; rat, in vivo", "value": 1.51},
      {"measurement": "IC50", "setting": "RAW264.7 macrophages; 2-h exposure, total of 72 h incubation, read-out: relative IC50, inhibition of cell proliferation", "value": "~1.2", "unit": "nM"},
      {"measurement": "anti-proliferative effect competable by folic acid", "setting": "RAW264.7 macrophages; 100-fold excess folic acid", "value": 100, "unit": "%"}
    ]}
  ]
}
